Experimental data as given in patent US20220356229A1 (published 2022).
Numbering of substitutions follows the chain as printed.

Columns and labels:
[1] = biological target: SARS-CoV-2 Spike (S) protein, wild type (SARS-CoV-2, UniProt P0DTC2 14-1208); assay: HT-SPR Carterra LSA; mAb coupled to chip, Spike in solution; 1:1 Langmuir fit
[2] = biological target: SARS-CoV-2 full length Spike protein, wild type (SARS-CoV-2, UniProt P0DTC2 14-1208)
SARS-CoV Spike protein = SARS-CoV Spike protein (SARS-CoV, UniProt P59594 14-1190)

B1: anti-SARS-CoV-2 antibody 1015 (antibody, V domains shown)
VH: EVQLVESGGGLVQPGGSLRLSCAASGFTFSSYWMHWVRQAPGKGLVWVSHINSDGSSTSYADSVKGRFTISRDNAKNTLYLQMNSLRAEDTAVYYCARGLRYFDLDVWGQGTTVTVSS
VL: QSVLTQPPSVSEAPRQRVTISCSGSSSNIGNNAVNWYQQLPGKAPKLLIFYDDLLPSGVSDRFSGSKSGTSASLAISGLQSEDEADYYCAAWDDSLNGGVFGGGTKLTVLG
Kd [1]: 0.0439 nM
koff [1]: 2.19e-05 s⁻¹
kon [1]: 500000 M⁻¹ s⁻¹

B2: anti-SARS-CoV-2 antibody 970 (antibody, V domains shown)
VH: EVQLVESGGGLVQPGGSLRLSCAASGFTFSSYWMSWVRQAPGKGLEWVANINKDGSEKYYVDSVKGRFTISRDNAKNSLYLQMNSLRAEDTAVYFCARDYRYFDWLLSQIDLEIDYFDYWGQGTLVTVSS
VL: not shown
Kd [1]: 0.482 nM
koff [1]: 0.00034 s⁻¹
kon [1]: 706000 M⁻¹ s⁻¹

B3: anti-SARS-CoV-2 antibody 1139 (antibody, V domains shown)
VH: QVQLVQSGAEVKKPGASVKVSCKASGYTFSSYEINWVRQATGQGLEWMGRMTLNSGNTGYAQNFQGRVTMTRDTSISTAYMELSGLRSEDTAVYYCARMRSGWPTHGRPDDYWGQGTLVTVSS
VL: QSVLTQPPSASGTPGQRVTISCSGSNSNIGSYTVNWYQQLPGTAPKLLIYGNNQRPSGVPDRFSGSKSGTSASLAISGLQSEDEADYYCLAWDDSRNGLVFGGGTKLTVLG
Kd [1]: 0.0433 nM
koff [1]: 5.31e-05 s⁻¹
kon [1]: 1.22e+06 M⁻¹ s⁻¹

B4: antibody 317 (antibody, V domains shown)
VH: QVQLVQSGAEVKKPGASVKVSCKVSGYTLTELSMHWVRQAPGKGLEWMGGFDPEDGETIYAQKFQGRVTMTEDTSTDTAYMELSSLRSEDTAVYYCASSPAAAGTSQYYYYYGMDVWGQGTTVTVSS
VL: not shown
bead binding signal (fold over isotype) [2]: 890 fold over isotype

B5: antibody 316 (antibody, V domains shown)
VH: QVHLVESGGGVVQPGRSLRLSCAASGFTLTAYAMHWVRQAPGKRLEWVALISYDGSVKKYADSVKGRITVSGDTSTNTLHLQMNSLRADDTAVYYCVRGGVSGPNSFDLWGQGTMVTVSS
VL: DVVMTQSPLSLPVTLGQPASMSCRSSQSLEYSDGNTYVNWFHQRPGQSPRRLIYKVSYRDSGVPDRFSGSGSGTDFTLQISRVEAEDVGIYYCMQGTHWPVTFGQGTKVEIK
bead binding signal (fold over isotype) [2]: 442 fold over isotype

B6: antibody 327 (antibody, V domains shown)
VH: QVQLVESGGGVVQPGRSLRLSCAASGFNLSNYAMHWVRQASGKGLEWVSLISYDGSIKYYTDSVKGRFTVSGDNSKNTLFLQMNSLRPDDSALYYCVRGGVSGPNSFDMWGQGTTVTVSS
VL: B5 VL with M21I, E30V, H42Q, K55Q, Y58I, D60A, T77A, Q79K
bead binding signal (fold over isotype) [2]: 413 fold over isotype

B7: anti-SARS-CoV-2 antibody 851 (antibody, V domains shown)
VH: QITLKESGPTLVKPTQTLTLTCTFSGFSLSTNGVGMGWIRQPPGKALEWLALIYWDDDQFYSPSLKSRLTITRDTSKNQVVLTMTNMDPVDTATYYCAQAFYESFGFYSWGQGTLVTVSS
VL: NFMLTQPHSVSESPGKTVIISCTRSIGSIASNYVQWYQQRPGSAPTIVVFEDNERPSGVPDRFSGSIDRSSNSASLTISGLKTEDEADYYCQSYDGSSELVFGGGTKLTVLG
Kd [1]: ≤ 1.44 nM
koff [1]: ≤ 1e-05 s⁻¹
kon [1]: 6960 M⁻¹ s⁻¹

B8: antibody 333 (antibody, V domains shown)
VH: QVHLVESGGGVVLPGRSLRLSCSASQFIFSNYDMHWVRQSPGMGLEWVAGISSDGSDKYYIDSVRGRFTISRDNAKNTLFLQMNSLTTEDTAVYSCAKGGGKFGQYWGRGTLVTVSS
VL: AIQMTQSPSSLSASVGDRVTITCRASQVIRNDLAWFQQKPGEAPNLLVYSASNLQSGVPSRFSGSGSGTDFTLTISSLQPEDFATYYCLQDYSYPYTFGQGTKLDMK
bead binding signal (fold over isotype) [2]: 1.08 fold over isotype

B9: anti-SARS-CoV-2 antibody 923 (antibody, V domains shown)
VH: EVQLVESGGGVVRPGGSLRLSCAASGFIFDDYDMTWVRQAPGKGLEWVSGISWNGGNTGYADSVKGRFTISRDNAKNSLYLQMNSLRAEDTALYHCAVIMSPIPRYSGYDWAGGAFDIWGQGTMVTVSS
VL: SSELTQDPAVSVALGQTVRITCQGDSLRSYYASWYQQKPGQVPILVIYDKNNRPSGIPDRFSGSSSGNTASLTITGAQAEDEADYYCNSRDSSGNAVVFGGGTKLTVLG
Kd [1]: ≤ 0.0161 nM
koff [1]: ≤ 1e-05 s⁻¹
kon [1]: 653000 M⁻¹ s⁻¹

B10: antibody 324 (antibody, V domains shown)
VH: QVQLQESGPGLVKPSGTLSLTCAVSGGSISSSNWWSWVRQPPGKGLEWIGEIYHSGSTNYNPSLKSRVTISVDNSKNQFSLKLSSVTAADTAVYYCARESVAAAGISYYYYGMDVWGQGTTVTVSS
VL: EIVLTQSPGTLSLSPGERATLSCRASQSVSGRYLAWYQQKPGQAPRLLIYGASSRATGIPDRFSGSGSGTDFTLTISRLEPEDFAVYYCQHYGSSPGTFGQGTRLEIK
bead binding signal (fold over isotype) [2]: 1.13 fold over isotype

B11: antibody 328 (antibody, V domains shown)
VH: B10 VH
VL: DIQMTQSPSSLSASVGDRVTITCRASQGIRNDLGWYQQKPGKAPKRLIYAASSLQSGVPSRFSGSGSGTEFTLTVSGLQPEDFATYYCLQYNSSPLTFGGGTKVEIK
bead binding signal (fold over isotype) [2]: 1.2 fold over isotype

B12: antibody 380 (antibody, V domains shown)
VH: QVQLVESGGGVVQPGRSLRLSCAASGFTLKNYGMHWVRQAPGKGLEWVIVLSFDGSDEYKADSVRGRFTVSRDNSKNTLFLQMNSLRPDDTAVYYCAREQPTMIEGGRGPFDIWGQGTMVTVSS
VL: EVVMTQSPATLSVSPGDRATLSCRASQGVNSNLAWYQQKPGQAPRLLIYAASTRATGIPARFSASGSGTHFTLTISSLQSEDFAVYYCLQYNNWPPWTFGQGTKLEIK
bead binding signal (median fluorescence, fold over isotype control) (SARS-CoV Spike protein): 1.21 fold over isotype control

B13: anti-SARS-CoV-2 antibody 1037 (antibody, V domains shown)
VH: QITLKESGPTLVKPTQTLTLTCTFSGFSLSTSGVGVGWIRQPPGKALEWLALIYWDDDKRYSPSLKSRLTITKDTSKNQVVLTMTNMDPVDTATYYCAHHTITRINDYWGQGTLVTVSS
VL: QSALTQPASVSGSPGQSITISCTATSSDVGAYNYVSWYQQHPGKAPKLMIYDVSKRPSGVSNRFSGSKSGNTASLTISGLQAEDEADYYCSSYTSSSTVFGGGTKLTVLG
Kd [1]: 0.0319 nM
koff [1]: 1.36e-05 s⁻¹
kon [1]: 443000 M⁻¹ s⁻¹

B14: antibody 331 (antibody, V domains shown)
V domain 1: QITLKESGPTLVKPTETLTLTCSFSGFSLTKTGEAAGWIRQAPGRALEWVTVIFWDDDKRYSPSLQNRISVTKDTSKNQVVLRMTNVARFDTGTYFCWAMGGPGKEYFGQGTLVAVSS
V domain 2: QSVLTQPPSVSGAPGQRVTISCTGTSSSIGPYSDVHWYQHVSGKAPRLLIFGNSNRPSGVPDRFSGSKSGTSASLVIAGLQAEDEADYYCQSYDSSLGEIYVFGTGTTVTVL
bead binding signal (fold over isotype) [2]: 850 fold over isotype

B15: antibody 339 (antibody, V domains shown)
V domain 1: B14 V domain 1 with K31R, N67S, I69L, S70T, R83T, G93A, L113Q
V domain 2: B14 V domain 2
bead binding signal (fold over isotype) [2]: 874 fold over isotype

B16: antibody 329 (antibody, V domains shown)
VH: EVQLVESGGGLVQPGGSLRLSCAASGFTFSSYWMHWVRQAPGKGLVWVSRINSDGSSTSYADSVKGRFTISRDNAKNTLYLQMNSLRAEDTAVYYCAREGIVATITLDYWGQGTLVTVSS
VL: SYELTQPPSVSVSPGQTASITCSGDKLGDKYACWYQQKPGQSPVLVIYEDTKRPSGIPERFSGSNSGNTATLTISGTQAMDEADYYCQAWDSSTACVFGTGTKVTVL
bead binding signal (fold over isotype) [2]: 497 fold over isotype

B17: anti-SARS-CoV-2 antibody 1149 (antibody, V domains shown)
VH: QVQLVQSGAEVKKPGASVKVSCKASGYTFASYDINWVRQATGQGPEWMGWMIPNIGNTGYAQKFQGRVTMTRNTSISTAYMELSSLTSEDTAVYYCARVSRLFNDFGLRHEAPVDFWGQGTRVTVSS
VL: QSVLTQPPSVSGAPGQRVTISCTGSSSNIGAGYDVHWYQQLPGTAPKLLIYGYSSRPSGVPDRFSGSKSGTSASLAITGLQAEDEADYYCQSYDSSLSVLFGGGTKLTVLG
Kd [1]: ≤ 0.0151 nM
koff [1]: ≤ 1e-05 s⁻¹
kon [1]: 664000 M⁻¹ s⁻¹

B18: antibody 323 (antibody, V domains shown)
VH: QVQLVQSGAEVKKPGASVKVSCKVSGYTLTELSMHWVRQAPGKGLEWMGGFDPEDGETIYAQKFQGRVTMTEDTSTDTAYMELSSLRSEDTAVYYCATSTIFAPGGWFDPWGQGTLVTVSS
VL: QSALTQPASVSGSPGQSITISCTGTSSDVGSYNLVSWYQQHPGKAPKLMIYEVSKRPSGVSNRFSGSKSGNTASLTISGLQAEDEADYYCCSYAGSTHYVFGTGTKVTVL
bead binding signal (fold over isotype) [2]: 994 fold over isotype

B19: antibody 320 (antibody, V domains shown)
VH: QVQLVQSGAEVKKPGASVKVSCKASGYTFTSYGISWVRQAPGQGLEWMGWISAYNGNTNYAQKLQGRVTMTTDTSTRTAYMELRSLRSDDTAVYYCARVGCYYDSSGYSCAENFQHWGQGTLVTVSS
VL: QSVLTQPPSVSGAPGQRVTISCTGSSSNIGAGYDVHWYQQLPGTAPKLLIYGNSNRPSGVPDRFSGSKSGTSASLAITGLQAEDEADYYCQSYDSSLSALFGGGTKLTVL
bead binding signal (fold over isotype) [2]: 1200 fold over isotype

B20: antibody 326 (antibody, V domains shown)
VH: QITLKESGPTLVKPTQTLTLTCTFSGFSLNTSGVGVGWIRQPPGKALEWLSLIFWNDDKRYSPSLRSRLTITKDTSKNQVVLTMTNMDPVDTATYFCAHRNSGWSLKFDSWGQGSLVTVSA
VL: DIQMTQSPSSVSASVGDRVTITCRARQGISSWLVWYQQKPGKAPKLLIFGASSLQSGVPSRFNASGTGTEFTLTISSLQPEDFATYYCQQADSFPITFGQGTRLEIK
bead binding signal (fold over isotype) [2]: 193 fold over isotype

B21: antibody 332 (antibody, V domains shown)
VH: QVTLRESGPALVKPTQTLTLTCTFSGFSLSTSGMCVSWIRQPPGKALEWLALIDWDDDKYYSTSLKTRLTISKDTSKNQVVLTMTNMDPVDTATYYCARIHDDILTGYHYVDYWGQGTLVTVSS
VL: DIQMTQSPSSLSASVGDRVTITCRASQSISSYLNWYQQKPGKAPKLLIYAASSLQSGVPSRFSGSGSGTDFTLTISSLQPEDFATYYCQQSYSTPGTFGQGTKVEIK
bead binding signal (fold over isotype) [2]: 1.22 fold over isotype

B22: anti-SARS-CoV-2 antibody 1075 (antibody, V domains shown)
VH: QVQLVQSGAEVKKPGASVKVSCKVSGYTLIELSMHWVRQAPGKGLEWMGGFDPEDGETIYAQKFQGRVTMTEDTSTDTAYMELSSLRSEDTAVYYCATEWAYYGSGSYLGYWGQGTLVTVSS
VL: EIVMTQSPATLSVSPGERATLSCRASQSVSSNLAWFQQKPGQAPRLLIYGASTRVTVIPARFSGSGSGTEFTLTISSLQSEDFAVYYCQQYNNWPRTFGQGTKVEIKR
Kd [1]: 0.717 nM
koff [1]: 3.04e-05 s⁻¹
kon [1]: 227000 M⁻¹ s⁻¹
